# Measurements published in paper PMC9605926, “Safety of [^177Lu]Lu-NeoB treatment: a preclinical study characterizing absorbed dose and acute, early, and late organ toxicity” (European Journal of Nuclear Medicine and Molecular Imaging, 2022).
# Values joined by “and” are separate entries in the source; they are usually repeats but may differ in a detail not shown here. Equal values may be shown once.
# Experiments:
# healthy Balb/c mice [1] = experiment: Toxicity study, histopathology (5-point grade); 3 i.v. injections at 7-day interval; control group 2 = 3× 1200 pmol [175Lu]Lu-NeoB; treatment groups 1/2/3 = 3× 40 MBq/400 pmol, 80 MBq/800 pmol, 120 MBq/1200 pmol [177Lu]Lu-NeoB; type: in vivo, mouse
# Description: (§1) Five different experimental groups (10 male and 10 female healthy animals per group; n = 100) were included in the radiotoxicity study and treated as follows: control group 1: 3 × vehicle (PBS + kolliphor HS 15 (1 mg/mL)); control group 2: 3 × 1200 pmol [^175Lu]Lu-NeoB; treatment group 1: 3 × 40 MBq/400 pmol [^177Lu]Lu-NeoB; treatment group 2: 3 × 80 MBq/800 pmol [^177Lu]Lu-NeoB; and treatment group 3: 3 × 120 MBq/1200 pmol [^177Lu]Lu-NeoB.
# (§2) Animals received 3 injections with an interval of 7 days between each injection.
# At 5, 19, and 43 weeks after the first injection, 3–4 male and 3–4 female animals of each group were sacrificed by isoflurane overdose after a blood sample was taken by retro-orbital puncture. Hereafter, the axillary lymph nodes, mesenteric lymph nodes, skin, mammary fat pad, sternum, pancreas, adrenal glands, kidneys, spleen, liver, gallbladder, stomach, duodenum, jejunum, ileum, caecum, colon, rectum, testes (M), epididymis (M), seminal vesicles (M), prostate gland (M), ovaries (F), oviducts (F), uterus-cervix (F), vagina (F), bladder, ureters, sciatic nerve, skeletal muscle, femur, lungs, trachea, esophagus, thymus, thyroid gland, aorta, heart, brain, pituitary gland, eyes, harderian glands, tongue, spinal column, and the tail were collected and analyzed macroscopically. All organs and tissues were formalin fixed (4% buffered formaldehyde) and shipped to the European Research Biology Centre (ERBC, Pomezia, Rome, Italy) where histological sampling, embedding, sectioning (5 µm thick), and hematoxylin–eosin staining were performed according to standard guidelines. All organs and tissues were analyzed microscopically by an experienced pathologist. A 5-point grading scale was used: 1: minimal change, 2: mild change, 3: moderate change, 4: marked change, 5: severe change.
# healthy Balb/c mice [2] = experiment: Toxicity study, hematology (same groups as A3); type: in vivo, mouse; conditions: control group 2, 5, 11, 19, 30, 43 wk, mean±SD
# Description: as §1, §2
# Throughout the study, the animals were observed daily to check for physical signs of toxicity and signs of discomfort, and animals were weighed 2–3 times per week. Furthermore, at week -1, 5, 11, 19, 30, and 43, blood samples were collected by submandibular puncture from all animals that were in the study at that time point. All blood samples were analyzed for hematological parameters (hematocrit; hemoglobin; red blood cell count; white blood cell count; hemoglobin; mean cell hemoglobin concentration; mean cell volume; platelet count) on the scilVet abc + counter (Covetrus).
# healthy Balb/c mice [3] = experiment: Toxicity study, clinical chemistry; type: in vivo, mouse; conditions: control group 2, 5, 11, 19, 30, 43 wk, mean±SD
# Description: as §1, §2
# In addition, the following clinical chemistry parameters were measured: sodium, potassium chloride, calcium, glucose, creatinine, urea, alanine aminotransferase (ALT), aspartate aminotransferase (AST), alkaline phosphatase (ALP), amylase, lipase, and cholesterol, using the Roche/Hitachi cobas c systems according to the standard protocol. To reach the volume necessary for measuring the clinical chemistry parameters, the blood plasma was diluted 3–5 times with demineralized water.
# patients = conditions: human, in vivo; cited from earlier work
# Excerpt: Due to the very small size of murine kidneys and the long range of β^− particles, the murine kidneys receive a more homogeneous radiation dose compared to the much larger human kidneys. […] These ... || Bone marrow toxicity is a concern when using targeted radionuclide therapy with, for example, lutetium-177 labeled peptides with a long circulation time. Here, we found a decrease in WBC counts 5 weeks after radioligand injection in treatment group 3, which received bone marrow doses between 0.20 and 0.36 Gy. Although not clear from our histopathological analysis, this finding could potentially indicate bone marrow suppression. However, it should also be noted that the brief drop in WBC counts may have (partly) been caused by the reported urinary bladder inflammation. The observed ...
# [4] = female wk 43, control group 2, grade 1
# [5] = female wk 43, control group 2, grade 2
# [6] = male wk 5, control group 2, grade 1
# [7] = male wk 5, control group 2, grade 2
# [8] = male wk 19, control group 2, grade 1
# [9] = male wk 43, control group 2, grade 1
# [10] = male wk 43, control group 2, grade 2
compound,measurement,setting,value
CC(C)CC(CC(C)C)NC(=O)[C@H](Cc1cnc[nH]1)NC(=O)CNC(=O)[C@@H](NC(=O)[C@H](C)NC(=O)[C@H](Cc1c[nH]c2ccccc12)NC(=O)[C@H](CCC(N)=O)NC(=O)[C@@H](Cc1ccccc1)NC(=O)COCC(=O)Nc1ccc(CNC(=O)CN2CCN(CC(=O)O)CCN(CC(=O)O)CCN(CC(=O)O)CC2)cc1)C(C)C [[^175Lu]Lu-NeoB],Treatment-related toxicological effects,"healthy Balb/c mice [1]; control group 2, 3× 1200 pmol, male and female",did not show any treatment-related toxicological effects
same,"Adrenal glands subcapsular cell hyperplasia, incidence","healthy Balb/c mice [1]; female wk 5, control group 2, grade 1",2/3
same,"Brain artifacts, incidence","healthy Balb/c mice [1]; female wk 5, control group 2, grade 3",1/3
same,"Adrenal glands subcapsular cell hyperplasia, incidence","healthy Balb/c mice [1]; female wk 19, control group 2, grade 1",1/3
same,"Adrenal glands subcapsular cell hyperplasia, incidence","healthy Balb/c mice [1]; female wk 19, control group 2, grade 2",2/3
same,"Adrenal glands subcapsular cell hyperplasia, incidence",healthy Balb/c mice [1]; [4],1/4
same,"Liver inflammatory cell foci, incidence",healthy Balb/c mice [1]; [4],1/4
same,"Adrenal glands subcapsular cell hyperplasia, incidence",healthy Balb/c mice [1]; [5],2/4
same,"Pancreas inflammatory cell foci, incidence",healthy Balb/c mice [1]; [5],1/4
same,"Uterus endometrial hyperplasia, incidence","healthy Balb/c mice [1]; female wk 43, control group 2, grade 4",1/4
same,"Adrenal glands accessory cortical tissue, incidence",healthy Balb/c mice [1]; [6],1/3
same,"Adrenal glands subcapsular cell hyperplasia, incidence",healthy Balb/c mice [1]; [6],1/3
same,"Adrenal glands subcapsular cell hyperplasia, incidence",healthy Balb/c mice [1]; [7],1/3
same,"Spleen extramedullary haematopoiesis, incidence",healthy Balb/c mice [1]; [7],1/3
same,"Adrenal glands subcapsular cell hyperplasia, incidence",healthy Balb/c mice [1]; [8],2/3
same,"Pancreas inflammatory cell foci, incidence",healthy Balb/c mice [1]; [8],1/3
same,"Urinary bladder proteinaceous plug, incidence","healthy Balb/c mice [1]; male wk 19, control group 2, grade 2",1/3
same,"Adrenal glands subcapsular cell hyperplasia, incidence",healthy Balb/c mice [1]; [9],3/4
same,"Kidneys inflammatory cell foci, incidence",healthy Balb/c mice [1]; [9],1/4
same,"Testes germ cell depletion, incidence",healthy Balb/c mice [1]; [9],1/4
same,"Adrenal glands subcapsular cell hyperplasia, incidence",healthy Balb/c mice [1]; [10],1/4
same,"Pancreas inflammatory cell foci, incidence",healthy Balb/c mice [1]; [10],1/4
same,"Kidneys cyst/s, incidence","healthy Balb/c mice [1]; male wk 43, control group 2, grade 3",1/4
same,WBC,healthy Balb/c mice [2]; female,7.27 ± 1.51 103/mm3 and 8.51 ± 2.34 103/mm3 and 6.74 ± 3.19 103/mm3 and 10.38 ± 2.86 103/mm3 and 7.40 ± 0.72 103/mm3
same,WBC,healthy Balb/c mice [2]; male,7.67 ± 1.50 103/mm3 and 8.37 ± 2.67 103/mm3 and 9.53 ± 2.84 103/mm3 and 9.80 ± 2.25 103/mm3 and 6.70 ± 2.71 103/mm3
same,Alk. Phosphatase,healthy Balb/c mice [3]; female,100.20 ± 6.96 U/L and 84.43 ± 7.63 U/L and 73.57 ± 9.88 U/L and 86.25 ± 8.54 U/L and 71.25 ± 14.93 U/L
same,Urea,healthy Balb/c mice [3]; female,7.83 ± 0.88 mmol/L and 7.07 ± 1.19 mmol/L and 6.14 ± 0.38 mmol/L and 7.00 ± 0.00 mmol/L and 6.17 ± 0.76 mmol/L
same,Alk. Phosphatase,healthy Balb/c mice [3]; male,117.70 ± 8.30 U/L and 100.29 ± 7.72 U/L and 62.50 ± 6.45 U/L and 80.00 ± 7.07 U/L and 67.50 ± 2.89 U/L
same,Urea,healthy Balb/c mice [3]; male,7.17 ± 0.64 mmol/L and 5.61 ± 0.86 mmol/L and 5.75 ± 0.65 mmol/L and 6.75 ± 1.55 mmol/L and 8.00 ± 2.12 mmol/L
[^177Lu]Lu-DOTATATE,Average absorbed bone marrow dose,patients,2 Gy
same,Average kidney dose in patients,patients,20.1 ± 4.9 Gy
same,"Minimal to mild nephrotoxicity, cases",patients,6/79
